FireProtDB (doi:10.1016/s0022-2836(02)00915-4)
Values joined by “and” are separate entries in the source; they are usually repeats but may differ in a detail not shown here. Equal values may be shown once.

B1: Protein GrpE, P09372 (parent)
chain: MSSKEQKTPEGQAPEEIIMDQHEEIEAVEPEASAEQVDPRDEKVANLEAQLAEAQTRERDGILRVKAEMENLRRRTELDIEKAHKFALEKFINELLPVIDSLDRALEVADKANPDMSAMVEGIELTLKSMLDVVRKFGVEVIAETNVPLDPNVHQAIAMVESDDVAPGNVLGIMQKGYTLNGRTIRAAMVTVAKAKA

Variants of: B1
Conditions: Escherichia coli (strain K12); pH 6.8; Thermal; CD; potassium phosphate 10 mM; transition: 3; reversible: yes; structure 1DKG; whole UniProt chain shown

| Variant | Tm [°C] | change of melting temperature, mutant - wild type (higher = more stable) |
| --- | --- | --- |
| MSSKEQKTPEGQAPEEIIMDQHEEIEAVEPEASAEQVDPRDEKVANLEAQLAGAQTRERDGILRVKAEMENLRRRTELDIEKAHKFALEKFINELLPVIDSLDRALEVADKANPDMSAMVEGIELTLKSMLDVVRKFGVEVIAETNVPLDPNVHQAIAMVESDDVAPGNVLGIMQKGYTLNGRTIRAAMVTVAKAKA [E53G] | 81 | -2 °C |
| MSSKEQKTPEGQAPEEIIMDQHEEIEAVEPEASAEQVDPRDEKVANLEAQLAEAQTRERDGILRVKAEMENLRRRTELDIEKAHKFALEKFINELLPVIDSLDRALEVADKANPDMSAMVEDIELTLKSMLDVVRKFGVEVIAETNVPLDPNVHQAIAMVESDDVAPGNVLGIMQKGYTLNGRTIRAAMVTVAKAKA [G122D] |  | -3 °C and 0 °C and -2 °C |
